Target: T1, DJ-1 (human (endogenous in HEK293T)), Q99497
T1 chain: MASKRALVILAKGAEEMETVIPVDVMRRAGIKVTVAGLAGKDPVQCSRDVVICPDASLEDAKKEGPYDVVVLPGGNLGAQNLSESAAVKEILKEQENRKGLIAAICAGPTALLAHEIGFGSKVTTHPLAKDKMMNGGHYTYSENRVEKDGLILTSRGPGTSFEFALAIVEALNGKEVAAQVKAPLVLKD
Assay: cross-linking
Conditions: remark: other sources report otherwise

B1: DJ-1, Q99497 1-189 (natural protein)
chain: T1 chain
stoichiometry N: 2

From paper PMC3699067
